Measurements: patent US20230183793
Like-named read-outs stand apart in the source and are kept apart here.

Columns and labels:
[1] = system: M.MpeI N374K (Mycoplasma penetrans); conditions: CpGs converted to 5cxmC with CxSAM; ~60% 5mC with SAM; bisulfite sequencing
[2] = system: M.MpeI N374K (Mycoplasma penetrans); conditions: 5mC on one strand of CpG; CxSAM preferred over SAM 1.3-fold; HpaII protection assay
[3] = system: M.MpeI WT K374N (reversion to wild type) (Mycoplasma penetrans); conditions: CpGs modified with SAM; no transfer with CxSAM
[4] = system: M.MpeI N374K (Mycoplasma penetrans); conditions: CpGs modified with SAM or CxSAM, bisulfite sequencing
[5] = biological target: T1, Dcm N436K (Escherichia coli) (UniProt P0AED9); assay: cell_activity; conditions: CCWGG sites carboxymethylated; also makes 5mC
T1 sequence: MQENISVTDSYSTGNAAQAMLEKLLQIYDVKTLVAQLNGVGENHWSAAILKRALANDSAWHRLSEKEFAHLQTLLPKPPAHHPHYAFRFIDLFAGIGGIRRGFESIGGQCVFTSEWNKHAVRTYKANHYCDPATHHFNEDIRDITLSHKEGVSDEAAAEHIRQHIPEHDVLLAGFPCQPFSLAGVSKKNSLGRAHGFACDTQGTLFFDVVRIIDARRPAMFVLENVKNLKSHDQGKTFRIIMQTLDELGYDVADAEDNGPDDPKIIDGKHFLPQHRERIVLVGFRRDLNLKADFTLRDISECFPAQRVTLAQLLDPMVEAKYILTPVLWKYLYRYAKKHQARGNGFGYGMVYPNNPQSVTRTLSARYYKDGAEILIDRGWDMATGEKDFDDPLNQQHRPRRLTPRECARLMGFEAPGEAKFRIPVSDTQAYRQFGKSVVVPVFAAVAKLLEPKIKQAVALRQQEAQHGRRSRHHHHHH

Substance: lambda phage genomic DNA, unmethylated
- activity [1]: 50%

Substance: hemimethylated CpG fluorophore-labelled oligonucleotide
- binding signal [2]: 1.3 fold

Substance: pUC19 plasmid DNA
- activity [3]: 100%
- activity [4]: > 70%

Substance: E. coli genomic DNA (dam-/dcm-)
- activity [5]: > 1.5%
